Some results are limits rather than exact numbers.

This experiment has as its target GLP-1 receptor of RIN-m5F rat insulinoma cells (rat) (UniProt P32301).

As to Exendin-4(Lys27)-PEG-Fc, the In-vitro titer (%) (EC50 of cAMP in RIN-m5F cells, compared) was 6.3%.

For Exendin-4(N)-PEG-Fc, the In-vitro titer (%) (EC50 of cAMP in RIN-m5F cells, compared) was below 0.2%.

(Values after patent US20150056223A1, “PHARMACEUTICAL COMPOSITION FOR THE PREVENTION OR TREATMENT OF NON-ALCOHOLIC FATTY LIVER DISEASE” (HANMI SCIENCE CO., LTD, priority 2012, published 2015).)
